Results as given in publication PMC314469, “Protein Interaction Networks by Proteome Peptide Scanning” (PLoS Biology, 2004).

T1: amphyphisin SH3 (AMPH_HUMAN), P49418
T1 chain: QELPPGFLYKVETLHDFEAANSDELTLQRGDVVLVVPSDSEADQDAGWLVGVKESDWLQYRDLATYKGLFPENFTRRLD


Experiments:
[1] = target: T1, amphyphisin SH3 (AMPH_HUMAN), P49418; test: SPOT array
[2] = target: endophilin SH3 (SH3G2_HUMAN), Q99962; test: SPOT array

Binder	normalised SPOT signal, Boehringer light units (BLU); mean over the file's lines of this peptide [1]	normalised SPOT signal, Boehringer light units (BLU); mean over the file's lines of this peptide [2]
ALPLPGRPARGVFY [Q9P025 127-140]	602	1290
HSDYLNRPHKSIHR [P21675 1363-1376]	116	89.2
HGRLPARPPFYAPA [Q9Y2L9 5-19]	33.8	775
GWGSPRRPTEAEAR [Q14767 91-104]	23.4	194
ALPHFRRPFFEEAA [Q9HCI5 739-752]	43.2	95.9
GYGLLVRPSRVRRA [O75134 505-518]	2560	747
HALHPARPARDHLD [Q9H7M8 395-408]	4580	1270
GTPKPKRPAILTYH [Q9UN36 56-69]	33.4	1130
GSSSPSRPPGLSSN [BAC05127 110-124]	72.7	318
GTGSPARPPTPAQV [Q9Y4Y7 208-222]	85.9	2420
HGRAPRRPSGPGPP [P21917 231-244]	35.4	11100
GVSKPRKPPMVMTP [Q9Y6X0 438-452]	58.3	328
HDDPPQKPPRSITL [Q9Y5K9 654-668]	8230	133
GYTGPPRPPPYGYQ [Q15427 383-397]	61.8	577
HAPRIKRPRLQVVK [Q96S08 292-305]	36.2	33.2
GWIQPRRPRDPTPS [Q14137 202-215]	76.8	836
GSSALKRPFEDGLG [Q9BXG4 352-365]	27.5	39.6
GTLPPPRPRREGRS [Q9H7L8 148-161]	5470	3720
GTVYPKRPEKPVPP [Q9Y5K6 406-419]	42.9	962
GTVELRRPGQSHAA [Q9NVM4 598-611]	29	42.6

Next, values leading:

normalised SPOT signal, Boehringer light units (BLU); mean over the file's lines of this peptide [1]	normalised SPOT signal, Boehringer light units (BLU); mean over the file's lines of this peptide [2]	Binder
2390	308	HGSFLARPSRKNQG [P29350 24-37]
35	229	GYQAFRRPSYSWGV [O14842 113-126]
17.4	88.7	GVPVPKRPAEGGGG [Q9NY27 58-71]
14.3	21.7	GTYQLRRPEDRPAG [Q96AB7 34-47]
9890	2470	GSVHPVRPMRLESF [P26022 194-207]
48.3	247	GWATPRRPAGLLML [O60449 4-17]
16.4	35.8	GVISLKRPFINLTA [Q9NYQ8 617-630]
135	317	GWGSPGRPKKKHTG [O94987 842-855]
3230	5.2	HGKGFSRPARPANR [O43158 529-542]
26	71.6	HGRGLKRPGKKGSN [Q99848 277-290]
30.6	142	GYDRLRRPGSRSKH [Q9C004 264-277]
55.2	52.2	GSVELRRPPAHQVM [Q15142 511-524]
2550	39.1	GWRSLQRPARRSGR [Q99700 27-40]
148	152	GTRQLGRPKRSPRS [P01266 150-163]
58.3	153	HAQSLSRPLKQTPI [O60292 454-467]
31.1	97.4	GYPAFKRPHMTAKD [Q96LM6 67-80]
31.2	141	GYDSLRRPGSRSKR [O43610 251-264]
168	1880	GSWSPMRPKKEAMK [O75928 422-435]
847	4520	ALPPPPRPDRGPPG [Q02833 302-315]
151	5800	ALPLPRRPSALPPK [Q96MH8 48-61]
47.4	45.8	GTQELRRPAQLRLQ [P98161 595-608]
11400	1420	GTRAPQRPKRESRG [Q9H7I4 14-27]
